PMC3922912, “Structural basis of stereospecific reduction by quinuclidinone reductase” (AMB Express, 2014)
One block for each compound: values may come before it.

What was measured:
[1] = tested on: O=C1CN2CCC1CC2; experiment: purified protein; type: biochemical, Rhodotorula mucilaginosa; details: 350 μM NADPH, 200 mM potassium phosphate pH 7.0, 37°C, substrate as HCl salt
[2] = molecular target: NADPH-dependent 3-quinuclidinone reductase (RrQR) from Rhodotorula rubra (Rhodotorula rubra); experiment: crystal structure; RrQR in complex with NADPH; crystals grown at 278 K, sitting-drop vapor diffusion, 100 mM CHES (pH 10.0), 30% PEG8000, 3% sucrose; four protomers in the asymmetric unit; 2.2 Å
[3] = molecular target: T1, NADPH-dependent 3-quinuclidinone reductase (RrQR) (Rhodotorula mucilaginosa, UniProt B9ZZZ6); experiment: X-ray crystal structure, […] Å; type: binding; details: crystals grown at 278 K, CHES pH 10.0, PEG8000; one NADPH per protomer
T1 construct: gene rqr; homotetramer; crystal model residues 7-272, residues 1-6 disordered

Compound: NADPH-dependent 3-quinuclidinone reductase (RrQR) (Rhodotorula mucilaginosa; N173A)
- Km [1]: 100 mM
- Vmax [1]: 11.6 µmol/min/mg
- kcat [1]: 5.62 s⁻¹

- stoichiometry N [2]: 4
Compound: NADPH-dependent 3-quinuclidinone reductase (RrQR) from Rhodotorula rubra (enzyme)

Compound: NC(=O)C1=CN([C@@H]2O[C@H](COP(=O)(O)OP(=O)(O)OC[C@H]3O[C@@H](n4cnc5c(N)ncnc54)[C@H](OP(=O)(O)O)[C@@H]3O)[C@@H](O)[C@H]2O)C=CC1 [NADPH]
- X-ray crystal structure, 2.2 Å [3]: A clear electron density for NADPH is observed in each protomer
